Experimental data published in the nanobody polyreactivity screen of Harvey et al. (2022).

Assay: yeast display, Sf9 membrane polyspecificity reagent, FACS + sequencing; frameworks hold sequencing errors
In short: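 Genes from sorted yeast were amplified by colony PCR, read by MiSeq 2 × 250 sequencing and filtered on CDR length. These cells carried a synthetic nanobody library in Saccharomyces cerevisiae BJ5465 and were sorted by FACS into low and high (top ~1%) gates on anti-HA and streptavidin fluorescence. Polyreactivity is labelled according to the gate of origin.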

Sequence	polyreactivity (PSR sort gate)
QVQLVESGGGLVQAGGSLRLSCAASGRTFPVYAMGWYRQAPGKERELVATIRRRDGSTYADSVKGRFTISRDNAKNTVYLQMNSLKPEDTAVYYCNAAYSQATPWYYAWYDYCGQGTQVTVSS	high polyreactivity
QVQLVESGGGLVQAGGSLRLSCAASGRTFPWYTMGWYRQAPGKERELVAAITRSSGSAYYADSVKGRFTISRDTAKNPVYLQMNSLKQEDTAVYYCAARYWVAGFRGRPYDYWGQGTQVTVSS	high polyreactivity
QVQLVESGGGLVQAGGSLRLSCAASGRTFPWYVMGWYRQAPGKERELVAAISSGGGKYYADSVKGRFTISRDNAKNTVFLQMNSLKPEDTAVYYCAGRLYYRRSFVREMYYWGQGSQVTVSS	high polyreactivity
QVQLVESGGGLVQAGGSLRLSCAASGRTFPYKAMGWYRQAPGKERELVAVISSGGGRTYYADSVKGRFTISRDNAKNTVYLQMNSLKPEDTAVYYCNKGGYAIRYDYYWGQGTQVTVSS	high polyreactivity
QVQLVESGGGLVQAGGSLRLSCAASGRTFPYNAMGWYRQAPGKERELVAAITSSGGSTYYADSVKGRFTISRDNAKNTVYLQMNSLKPEDTAVYYCAKGYYSPNYYYWGQGTQVTVSS	high polyreactivity
QVQLVESGGGLVQAGGSLRLSCAASGRTFPYNVMGWYRQAPRKERELVARITRGGSTDYADSVKGRFTISRDNAKNTVYLLMNSLKPEDTAVYYCAAAIGHFERFYWGQGTQVTVSS	low polyreactivity
QVQLVESGGGLVQAGGSLRLSCAASGRTFPYYAMGWYRQAPGKERELVAAISSSGGSTYYADSVKGRFTISRDNAKNTVNLQMNSLKPEDTAVYYCAARAPYSYSGYGYWGQGTQVTVSS	high polyreactivity
QVQLVESGGGLVQAGGSLRLSCAASGRTFPYYAMGWYRQAPGKERELVATITRGGSTYYADSVKGRFTISRDNAKNTVYLQMNSLKPEDTAVYYCNADYWGHRFYFPGRRDYWGQGTQVTVSS	low polyreactivity
QVQLVESGGGLVQAGGSLRLSCAASGRTFQDYAMGWYRQAPGKERELVAVINSGGSTYYADSVKGRFTISRDNAKNTVYLQMNSLKPEDTAVYYCAKGYWFYPWYHGYYWGQGTQVTVSS	high polyreactivity
QVQLVESGGGLVQAGGSLRLSCAASGRTFQFYAMGWYRQAPGKERELVAAITSGGSTYYADSVKGRFTISRDNAKNTVYLQMNSLKPEDTAVYYCNAKYNGYYRRFSEYDYWGQGTQVTVSS	high polyreactivity
QVQLVESGGGLVQAGGSLRLSCAASGRTFQGYTMGWYRQAPGKERELVAAITGGVGSTYYADSVKGRFTISRDNAKNTVYLQMNSLKPEDTAVYYCNTVSYGYTDLYIFYTGYYYWGQGTQVTVSS	low polyreactivity
QVQLVESGGGLVQAGGSLRLSCAASGRTFQIYAMGWYRQAPGKERELVAAISRRGGSTYYADSVKGRFTISRDNAKNTVYLQMNSLKPEDTAVYYCNVVHWRGEYSYAGYDYWGQGTQVTVSS	high polyreactivity
QVQLVESGGGLVQAGGSLRLSCAASGRTFQKNTMGWYRQAPGKERELVAAIDYSATTTYYADSVKGRFTSSRDNAKNTVYLQMNSLKPEDTAVYYCAARWSYPRWEFDYWGQGTQVTVSS	high polyreactivity
QVQLVESGGGLVQAGGSLRLSCAASGRTFQKYVMGWYRQEPGKEREIVAAISGGGGRTYYADSVKGRFTISRDNAKNTVYLQMNSLKPEDTAVYYCAARGLGKELDRFYYWGQGTQVTVSS	high polyreactivity
QVQLVESGGGLVQAGGSLRLSCAASGRTFQNNAMGWYRQAPGKERELVAAISRSGASTYYADSVKGRFTISRDNAKNTVYLQMNSLKPEDTAVYYCAARYQRTAYDYWGQGTQVTVSS	low polyreactivity
QVQLVESGGGLVQAGGSLRLSCAASGRTFQPYAMGWYRQAPGKERELVAAITSIGGSTFYADSVKGRFTISRDNAKNTVYLQMNSLKPEDTAVYYCARRGYYRSIWERDYWGQGTQVTVSS	low polyreactivity
QVQLVESGGGLVQAGGSLRLSCAASGRTFQQNAMGWYRQAPGKERELVAAINSRGGRTYYADSVKGRFTISRDYAKNTVYLQMNSLKPEDTAVYYCAARYYWGQGTQVTVSS	high polyreactivity
QVQLVESGGGLVQAGGSLRLSCAASGRTFQRNAMGLYRQEPGKERELVAAISTRGGSTYYADSVKGRFTISRDNAKNTVYLQMNSLKPEDTAVYYCAKDPTLTRGYKEGGGYDYLGQGTQVTVSS	high polyreactivity
QVQLVESGGGLVQAGGSLRLSCAASGRTFQVYAMGWYRQAPGKERELVAAISSSGGITYYADSVKGRFTISRDNAKNTVYLQMNSLKPEDTAVYYCNTLYVSSNEYWGQGTQVTVSS	high polyreactivity
QVQLVESGGGLVQAGGSLRLSCAASGRTFQWYTMGWYRQAPGKERELVAAISWSGTSTYYADSVKGRFTISRDIAKNTVYLQMNILNPEDTAVYYCAAEVIGRYYRLDYWGQGPQVTVSS	low polyreactivity
QVQLVESGGGLVQAGGSLRLSCAASGRTFQWYTMGWYRQAPGKERELVAGISWRGGSTYYADSVKGRFTISRDNAKNTVYLQMNSLKPEDTAVYYCAALASRLTGRDYWGQGTQVTVSS	high polyreactivity
QVQLVESGGGLVQAGGSLRLSCAASGRTFQYNAMGWYRQAPGKERELVAAISWSGGSTYYADSVKGRFTISRDNAKNTVYLQMNSLKPEDTAVYYCNARTLFKWRHGHYYAYDYWGQGTQVTVSS	high polyreactivity
QVQLVESGGGLVQAGGSLRLSCAASGRTFQYYAMGWYRQAPGKERELVAAITSGGSTYYADSVKGRFTISRDNAKNTVYLQMNSLKPEDTAVYYCAATFYYSGHDDYWGQGTQVTVSS	low polyreactivity
QVQLVESGGGLVQAGGSLRLSCAASGRTFQYYAMGWYRQAPGKERELVAAITSGGSTYYADSVKGRFTISRDNAKNTVYLQMNSLKTEDTAVYYCAADFLYYSSGGKMDYWGQGTQVTVSS	low polyreactivity
QVQLVESGGGLVQAGGSLRLSCAASGRTFQYYAMGWYRQAPGKERELVARINRSGGSTYYADSVKGRFTISRDNAKNTVYLQMNSLKPEDTAVYYCAADYLSRSPAYEHYYWGQGTQVTVSS	high polyreactivity
QVQLVESGGGLVQAGGSLRLSCAASGRTFQYYTMGWYRQAPGKERELVAAITWRGGTTYYADSVKGRFTISRDNAKNTVYLQMNSLKPEDTAVYYCAAYSPDYGFDYWGQGTQVTVSS	high polyreactivity
QVQLVESGGGLVQAGGSLRLSCAASGRTFRANAMGWYRQAPGKERELVAAISQRGGNTYYADSVKGRFTISRDNAKNTVYLQMNSLKPEDTAVYYCAADITTYRRGRYEYEYWGQGTQVTVSS	high polyreactivity
QVQLVESGGGLVQAGGSLRLSCAASGRTFRANAMGWYRQAPGKERELVAAITWDGGSTYYADSVKGRFTISRDNAKNTVYLQMNSLKPEDTAVYYCNTDPYLWGQGTQVTVSS	low polyreactivity
QVQLVESGGGLVQAGGSLRLSCAASGRTFRANTMGWYRQAPGKERELVAAINWSGGSTYYADSVKGRFTISRDNAKNTVYLQMNSLKPEDTAVYYCAKRVSVSYRKSTYDYWGQGTQVTVSS	high polyreactivity
QVQLVESGGGLVQAGGSLRLSCAASGRTFRAYAMGWYRQAPGKERELVAAITSGGSTYADSVKGRFTISRDNAKNTVYLQMNSLKPEDTAVYYCAADGYKLFYSKFRYVQYGYWGQGTQVTVSS	high polyreactivity
